Measurements: patent US20190106460A1 (published 2019)
Values joined by “and” are separate entries in the source; they are usually repeats but may differ in a detail not shown here. Equal entries are not always repeated. Starred links: 1 amine or outer side, 2 acyl side, 3 side chain; linkers in the order of their positions; H or OH if unused. Non-standard residues stand in square brackets, D forms with d. *: point of attachment. Tyr(Me) = O-methyl-L-tyrosine, COc1ccc(C[C@H](N[*:1])C(=O)[*:2])cc1; Phe(4-NO2) = N[C@@H](Cc1ccc([N+](=O)[O-])cc1)C(=O)O; Benzenesulfonyl(4-OMe) = COc1ccc(S(=O)(=O)*)cc1; Y(Me) = COc1ccc(C[C@H](N[*:1])C(=O)[*:2])cc1; 3,4‑(MeO)2‑PhSO2 = COc1ccc(S(=O)(=O)*)cc1OC; 4‑(BuO)‑PhSO2 = CCCCOc1ccc(S(=O)(=O)*)cc1; E(OMe) = COC(=O)CC[C@H](N[*:1])C(=O)[*:2]; E(Me) = COC(=O)CC[C@H](N[*:1])C(=O)[*:2]; Phe(3-Cl) = N[C@@H](Cc1cccc(Cl)c1)C(=O)O; Phe(4-Br) = N[C@@H](Cc1ccc(Br)cc1)C(=O)O; Phe(3-F) = N[C@@H](Cc1cccc(F)c1)C(=O)O; Phe(4-F) = N[C@@H](Cc1ccc(F)cc1)C(=O)O; 1Nal = N[C@@H](Cc1cccc2ccccc12)C(=O)O; Glutaryl = O=C(CCCC(=O)[*:2])[*:1]; Suc = O=C(CCC(=O)[*:2])[*:1]; Tos = Cc1ccc(S(=O)(=O)*)cc1; βE = a beta form of Glu

Experiments:
Skp2 = Skp2 (UniProt Q13309 1-424, limits assumed); assay: cell-based or functional assay
Skp2, sequence (Q13309 whole entry): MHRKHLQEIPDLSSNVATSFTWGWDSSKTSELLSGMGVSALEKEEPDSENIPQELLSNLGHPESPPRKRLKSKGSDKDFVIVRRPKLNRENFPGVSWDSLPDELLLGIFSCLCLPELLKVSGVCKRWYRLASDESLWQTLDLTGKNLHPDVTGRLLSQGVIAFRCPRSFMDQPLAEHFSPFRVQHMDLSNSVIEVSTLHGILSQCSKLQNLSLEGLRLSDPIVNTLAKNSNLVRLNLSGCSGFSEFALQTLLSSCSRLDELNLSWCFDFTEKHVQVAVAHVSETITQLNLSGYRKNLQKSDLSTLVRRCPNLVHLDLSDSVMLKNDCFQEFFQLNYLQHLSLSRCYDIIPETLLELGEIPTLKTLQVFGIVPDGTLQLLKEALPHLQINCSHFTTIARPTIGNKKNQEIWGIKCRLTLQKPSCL

Fbw7 = Fbw7 (UniProt Q969H0 263-707, limits assumed); assay: cell-based or functional assay
Fbw7, sequence (Q969H0 263-707 limits assumed): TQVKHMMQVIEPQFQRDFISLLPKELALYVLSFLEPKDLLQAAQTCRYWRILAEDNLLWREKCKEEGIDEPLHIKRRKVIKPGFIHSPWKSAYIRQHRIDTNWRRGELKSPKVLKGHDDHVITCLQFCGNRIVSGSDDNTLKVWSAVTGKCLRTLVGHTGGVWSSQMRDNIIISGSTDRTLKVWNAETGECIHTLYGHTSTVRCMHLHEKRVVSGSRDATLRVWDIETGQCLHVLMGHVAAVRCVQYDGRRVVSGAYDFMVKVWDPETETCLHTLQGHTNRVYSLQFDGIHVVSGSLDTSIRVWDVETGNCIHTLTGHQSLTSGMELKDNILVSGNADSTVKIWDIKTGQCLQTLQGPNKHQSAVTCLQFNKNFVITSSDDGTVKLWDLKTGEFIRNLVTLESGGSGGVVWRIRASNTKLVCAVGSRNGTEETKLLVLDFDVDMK

[1] = target: T1, HisβTrCP/Skp1 and HisβTrCP/GSTSkp1 (immobilised on NTA Biacore chip) (UniProt Q9Y297 175-605; P63208 1-163); assay: SPR, Biacore T200, βTrCP/Skp1 immobilised
T1 construct: SPR: KD values from both surfaces (with or without the GST moiety) were averaged to give the apparent KD; also called βTrCP surfaces
T1 sequence (Q9Y297 175-605, chain 1 of 2): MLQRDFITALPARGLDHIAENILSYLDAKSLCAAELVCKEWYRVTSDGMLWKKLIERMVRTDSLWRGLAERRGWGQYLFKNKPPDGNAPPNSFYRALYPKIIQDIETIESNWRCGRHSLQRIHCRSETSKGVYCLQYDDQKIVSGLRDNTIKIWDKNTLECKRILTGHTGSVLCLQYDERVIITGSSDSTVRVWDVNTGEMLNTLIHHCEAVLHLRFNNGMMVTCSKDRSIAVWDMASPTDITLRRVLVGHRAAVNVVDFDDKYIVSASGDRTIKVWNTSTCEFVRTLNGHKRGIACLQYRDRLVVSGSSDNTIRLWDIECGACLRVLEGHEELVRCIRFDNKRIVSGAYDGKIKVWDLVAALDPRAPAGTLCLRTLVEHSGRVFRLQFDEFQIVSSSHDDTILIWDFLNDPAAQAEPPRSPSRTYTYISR
T1 sequence (P63208 whole entry, chain 2 of 2): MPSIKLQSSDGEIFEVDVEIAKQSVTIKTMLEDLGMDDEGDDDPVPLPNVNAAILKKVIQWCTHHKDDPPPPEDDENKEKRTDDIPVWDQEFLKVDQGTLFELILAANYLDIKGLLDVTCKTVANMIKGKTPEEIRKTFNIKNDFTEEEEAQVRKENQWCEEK
Text: (§1) As βTrCP was His tagged, an NTA sensor chip was used. This sensor chip has a dextran surface matrix with immobilized nitrilotriacetic acid (NTA) which provides a means of capturing polyHis-tagged proteins through Nickel chelation. It was hoped that addition of Ni⁺ would orient the protein in a specific (and hopefully active) manner as it is covalently immobilised via amine coupling. Addition of EDC:NHS (N-ethyl-N′-(3-[…])-carbodiimide:N-hydroxysuccinimide) converts carboxyl groups on the dextran sensor chip surface to succinamide esters which readily form covalent bonds with primary amines. Each chip contains four flow cells (each a separate surface) which means that compounds/peptides can be passed over different forms of βTrCP and a reference surface simultaneously. If binding to βTrCP is occurring, responses should be the same (accounting for differences in density of surface etc) on each surface.
Small molecule/peptide samples to be assayed for binding to βTrCP surfaces, were provided as 10 mM stocks in 100% DMSO. All samples were tested in running buffer composed of 10 mM HEPES pH 7.4, 150 mM NaCl, 50 μM EDTA, 0.005% p20, and 1% DMSO. Serial dilutions were made using running buffer. Samples were tested over varying concentrations up to a maximum of 100 μM. Two methods of measuring the SPR response were employed: single cycle kinetics which measures the response across different concentrations of sample within a single cycle (no regeneration of surface) and a method that measures the response at a given concentration in each cycle and includes a regeneration wash after each sample injection. The regeneration solution used was the same as running buffer, but included 500 mM NaCl. Data was fitted using Biacore T200 evaluation software. KD values calculated from binding curves from both surfaces (with or without the GST moiety) were averaged to produce apparent KD's for each sample tested.

[2] = target: T2, βTrCP (tag cleaved and complexed with Skp1) (UniProt Q9Y297 175-605; P63208 1-163); assay: FP competition vs fluorescein-IκB peptide
T2 construct: Protein of the FP assay (0.035 µM); also called Beta Transducin repeat-containing protein; βTrCP/Skp1

[3] = target: T2, βTrCP (tag cleaved and complexed with …); assay: FP competition vs fluorescein-IκB peptide; remark: listed apart in the source
[4] = target: T2, βTrCP (tag cleaved and complexed with …); assay: FP competition vs fluorescein-IκB peptide; remark: listed apart in the source
[5] = target: T1, HisβTrCP/Skp1 and HisβTrCP/GSTSkp1 …; assay: SPR (Biacore T200), single cycle run up to 1e-6 M, steady-state fit of the run shown; Rmax 2.093 RU, Chi² 0.0110 RU² [A]
Text: as §1
Small molecule/peptide samples to be assayed for binding to βTrCP surfaces, were provided as 10 mM stocks in 100% DMSO. All samples were tested in running buffer composed of 10 mM HEPES pH 7.4, 150 mM NaCl, 50 μM EDTA, 0.005% p20, and 1% DMSO. Serial dilutions were made using running buffer. […] KD values calculated from binding curves from both surfaces (with or without the GST moiety) were averaged to produce apparent KD's for each sample tested.

[6] = target: T3, βTrCP (tag cleaved and complexed with Skp1) (UniProt Q9Y297 175-605; P63208 1-163); assay: FP competition, 10 nM fluorescein-IκB peptide on βTrCP/Skp1
T3 construct: Protein of the fluorescence polarisation assay, 0.035 µM; also called Beta Transducin repeat-containing protein; βTrCP/Skp1
Protocol: Binding of the compounds to βTrCP was assessed using a fluorescence polarisation (FP) binding assay. The FP assay is an in vitro binding assay using a fluorescein-tagged IkB peptide at 10 nM to mimic substrate binding to βTrCP, and was performed as described above.
Four sequences were selected for re-synthesis and testing in the FP assay, which was performed as described above along with 4 negative controls.

B1: 4-(MeO)-PhSO2-DEGF(3F)WE-NH2 (peptide)
peptide: {Benzenesulfonyl(4-OMe)}-DEG[Phe(3-F)]WE-NH2
SMILES: COc1ccc(S(=O)(=O)N[C@@H](CC(=O)O)C(=O)N[C@@H](CCC(=O)O)C(=O)NCC(=O)N[C@@H](Cc2cccc(F)c2)C(=O)N[C@@H](Cc2c[nH]c3ccccc23)C(=O)N[C@@H](CCC(=O)O)C(N)=O)cc1
notes: also called UBP026
% Inhibition Skp2 @ 10 µM (Skp2): 15% | % Inhibition Skp2 @ (100 µM) (Skp2): 3% | % Inhibition Fbw7 @ 10 µM (Fbw7): 0% | % Inhibition Fbw7 @ (100 µM) (Fbw7): 8% | Kd [1]: 0.495 µM | IC50 [2]: 0.027 µM | IC50 [3]: 0.027 µM

Suc-[βE]GYFE-NH2 (not fully specified; printed as Suc-βE-GYFE-NH2) [Suc-βE-GYFE-NH2]
IC50 [4]: 30 µM

B2: Suc-EG-F(4NO2)-F(4NO2)-NH2 (peptide)
peptide: Suc-EG[Phe(4-NO2)][Phe(4-NO2)]-NH2
SMILES: NC(=O)[C@H](Cc1ccc([N+](=O)[O-])cc1)NC(=O)[C@H](Cc1ccc([N+](=O)[O-])cc1)NC(=O)CNC(=O)[C@H](CCC(=O)O)NC(=O)CCC(=O)O
IC50 [4]: 78 µM

B3: Suc-EG-F(4Br)-F(3F)-NH2 (peptide)
peptide: Suc-EG[Phe(4-Br)][Phe(3-F)]-NH2
SMILES: NC(=O)[C@H](Cc1cccc(F)c1)NC(=O)[C@H](Cc1ccc(Br)cc1)NC(=O)CNC(=O)[C@H](CCC(=O)O)NC(=O)CCC(=O)O
IC50 [4]: 81 µM

Suc-EG[1Nal][Phe(4-NO2)]E-NH2 [Suc-EG-1Nal-F(4NO2)-E-NH2]
IC50 [4]: 68 µM

Suc-EG[1Nal][Tyr(Me)]E-NH2 [Suc-EG-1Nal-Y(Me)-E-NH2]
IC50 [4]: 5.4 µM

{4‑(BuO)‑PhSO2}-[dD]EG[Phe(3-F)]WE-NH2 (also called UBP030) [4-(BuO)-PhSO2-dEGF(3F)WE-NH2]
% Inhibition Skp2 @ 10 µM (Skp2): 0% | % Inhibition Skp2 @ (100 µM) (Skp2): 13% | % Inhibition Fbw7 @ 10 µM (Fbw7): 7% | % Inhibition Fbw7 @ (100 µM) (Fbw7): 12% | Kd [1]: 0.767 µM | IC50 [2]: 0.056 µM | IC50 [3]: 0.056 µM

B4: Suc-EGFF-NH2 (peptide)
peptide: Suc-EGFF-NH2
SMILES: NC(=O)[C@H](Cc1ccccc1)NC(=O)[C@H](Cc1ccccc1)NC(=O)CNC(=O)[C@H](CCC(=O)O)NC(=O)CCC(=O)O
IC50 [4]: 46 µM

B5: 3,4-(MeO)2-PhSO2-dEGF(3F)WE-NH2 (peptide)
peptide: {3,4‑(MeO)2‑PhSO2}-[dD]EG[Phe(3-F)]WE-NH2
SMILES: COc1ccc(S(=O)(=O)N[C@H](CC(=O)O)C(=O)N[C@@H](CCC(=O)O)C(=O)NCC(=O)N[C@@H](Cc2cccc(F)c2)C(=O)N[C@@H](Cc2c[nH]c3ccccc23)C(=O)N[C@@H](CCC(=O)O)C(N)=O)cc1OC
notes: also called UBP029
% Inhibition Skp2 @ 10 µM (Skp2): 19% | % Inhibition Skp2 @ (100 µM) (Skp2): 19% | % Inhibition Fbw7 @ 10 µM (Fbw7): 2% | % Inhibition Fbw7 @ (100 µM) (Fbw7): 0% | Kd [1]: 0.603 µM | IC50 [2]: 0.042 µM | IC50 [3]: 0.042 µM

Tos-[dD]EG[Phe(3-Cl)]W[E(Me)]-NH2 (also called UBP033) [Ts-dEGF(3Cl)WE(Me)-NH2]
% Inhibition Skp2 @ 10 µM (Skp2): 0% | % Inhibition Skp2 @ (100 µM) (Skp2): 10% | % Inhibition Fbw7 @ 10 µM (Fbw7): 7% | % Inhibition Fbw7 @ (100 µM) (Fbw7): 11% | Kd [1]: 0.047 µM | Kd [5]: 0.0216 µM | IC50 [2]: 0.017 µM | IC50 [3]: 0.017 µM

Phth-EGFFE-NH2 [Phth-EGFFE-NH2]
IC50 [6]: 10.9 µM

B6: Suc-EGFFE-NH2 (peptide)
peptide: Suc-EGFFE-NH2
SMILES: NC(=O)[C@H](CCC(=O)O)NC(=O)[C@H](Cc1ccccc1)NC(=O)[C@H](Cc1ccccc1)NC(=O)CNC(=O)[C@H](CCC(=O)O)NC(=O)CCC(=O)O
notes: also called UBP002; succ-EGFFE
IC50 [6]: 3.18 µM

Glutaryl-EGFFE-NH2 [Ga-EGFFE-NH2]
IC50 [4]: 65 µM

B7: Suc-EGF-Y(Me)-E(OMe)-NH2 (peptide)
peptide: Suc-EGF[Y(Me)][E(OMe)]-NH2
SMILES: COC(=O)CC[C@H](NC(=O)[C@H](Cc1ccc(OC)cc1)NC(=O)[C@H](Cc1ccccc1)NC(=O)CNC(=O)[C@H](CCC(=O)O)NC(=O)CCC(=O)O)C(N)=O
IC50 [4]: 71 µM

B8: Suc-EG-F(3F)-F(3F)-NH2 (peptide)
peptide: Suc-EG[Phe(3-F)][Phe(3-F)]-NH2
SMILES: NC(=O)[C@H](Cc1cccc(F)c1)NC(=O)[C@H](Cc1cccc(F)c1)NC(=O)CNC(=O)[C@H](CCC(=O)O)NC(=O)CCC(=O)O
IC50 [4]: 44 µM

B9: Suc-EGY-F(4NO2)-NH2 (peptide)
peptide: Suc-EGY[Phe(4-NO2)]-NH2
SMILES: NC(=O)[C@H](Cc1ccc([N+](=O)[O-])cc1)NC(=O)[C@H](Cc1ccc(O)cc1)NC(=O)CNC(=O)[C@H](CCC(=O)O)NC(=O)CCC(=O)O
IC50 [4]: 91 µM

B10: Suc-EGY-F(4F)-NH2 (peptide)
peptide: Suc-EGY[Phe(4-F)]-NH2
SMILES: NC(=O)[C@H](Cc1ccc(F)cc1)NC(=O)[C@H](Cc1ccc(O)cc1)NC(=O)CNC(=O)[C@H](CCC(=O)O)NC(=O)CCC(=O)O
IC50 [4]: 71 µM

B11: Suc-QGYF-NH2 (peptide)
peptide: Suc-QGYF-NH2
SMILES: NC(=O)CC[C@H](NC(=O)CCC(=O)O)C(=O)NCC(=O)N[C@@H](Cc1ccc(O)cc1)C(=O)N[C@@H](Cc1ccccc1)C(N)=O
IC50 [4]: 49 µM

Suc-EGYF-NH2 [Suc-EGYF-NH2]
IC50 [4]: 31 µM

B12: Suc-EGY-F(3F)-NH2 (peptide)
peptide: Suc-EGY[Phe(3-F)]-NH2
SMILES: NC(=O)[C@H](Cc1cccc(F)c1)NC(=O)[C@H](Cc1ccc(O)cc1)NC(=O)CNC(=O)[C@H](CCC(=O)O)NC(=O)CCC(=O)O
IC50 [4]: 91 µM

B13: Suc-EG-F(4Br)-F-NH2 (peptide)
peptide: Suc-EG[Phe(4-Br)]F-NH2
SMILES: NC(=O)[C@H](Cc1ccccc1)NC(=O)[C@H](Cc1ccc(Br)cc1)NC(=O)CNC(=O)[C@H](CCC(=O)O)NC(=O)CCC(=O)O
IC50 [4]: 38 µM and 39 µM
